From US20040132187A1

Molecular target: endogenous bradykinin receptor of α7/5-HT3-SH-EP1 cells
Assay: cell-based or functional assay

## bradykinin (from UniProt P01042 381-389) (peptide)
  increase in intracellular calcium (Calcium Green-1, FLIPR): 100 nM
